Measured values taken from patent US20260070987A1.
Substitutions are numbered along the chain they refer to. In names and notes the source's numbering stands. Values belong to the binder of their own block, whether it stands above or below them.

Target: equine FcRn (large alpha subunit p51) in complex with equine beta-2-microglobulin (equine) (UniProt F6XZ61)
Assay: SPR (Biacore), pH 6

Sequence of UniProt F6XZ61 (F6XZ61 entry or part of it, one chain of several): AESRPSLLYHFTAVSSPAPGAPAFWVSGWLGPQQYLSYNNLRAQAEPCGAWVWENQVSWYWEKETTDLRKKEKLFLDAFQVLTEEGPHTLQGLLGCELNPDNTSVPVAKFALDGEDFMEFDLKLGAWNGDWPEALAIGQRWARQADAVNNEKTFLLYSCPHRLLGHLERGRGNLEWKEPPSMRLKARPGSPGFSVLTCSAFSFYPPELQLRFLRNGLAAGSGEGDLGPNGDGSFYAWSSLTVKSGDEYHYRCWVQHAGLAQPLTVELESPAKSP

B1: equine IgG7 A426T mutant (antibody, part only; not given: Variable domains, not shown: another chain or arm of the molecule)
constant: ASTTAPKVFPLASHSAATSGSTVALGCLVSSYFPEPVTVSWNSGALTSGVHTFPSVLQSSGLYSLSSMVTVPASSLKSQTYICNVAHPASSTKVDKKIVIKECGGCPTCPECLSVGPSVFIFPPKPKDVLMISRTPTVTCVVVDVGHDFPDVQFNWYVDGVETHTATTEPKQEQNNSTYRVVSILAIQHKDWLSGKEFKCKVNNQALPAPVQKTISKPTGQPREPQVYVLAPHRDELSKNKVSVTCLVKDFYPTDIDIEWKSNGQPEPETKYSTTPAQLDSDGSYFLYSKLTVETNRWQQGTTFTCTVMHEALHNHYTEKSVSKSPGK
Kd: 0.0265 µM

B4: equine IgG7 D312E mutant (antibody, part only; not given: variable domains, not shown: another chain or arm of the molecule)
constant: B1 constant with D191E, T307A
Kd: 0.0425 µM

B6: equine IgG7 M428G mutant (antibody, part only; not given: variable domains, not shown: another chain or arm of the molecule)
constant: B1 constant with T307A, M309G
Kd: 0.0969 µM

B7: equine IgG7 D312F mutant (antibody, part only; not given: Variable domains, not shown: another chain or arm of the molecule)
constant: B1 constant with D191F, T307A
Kd: 0.0086 µM

B10: equine IgG7 M428E mutant (antibody, part only; not given: variable domains, not shown: another chain or arm of the molecule)
constant: B1 constant with T307A, M309E
Kd: 0.0398 µM

B12: equine IgG7 A426V mutant (antibody, part only; not given: variable domains, not shown: another chain or arm of the molecule)
constant: B1 constant with T307V
Kd: 0.0233 µM

B13: equine IgG7 D312I mutant (antibody, part only; not given: variable domains, not shown: another chain or arm of the molecule)
constant: B1 constant with D191I, T307A
Kd: 0.0152 µM

B14: equine IgG7 D312H mutant (antibody, part only; not given: variable domains, not shown: another chain or arm of the molecule)
constant: B1 constant with D191H, T307A
Kd: 0.0104 µM

B16: equine IgG7 D312C mutant (antibody, part only; not given: variable domains, not shown: another chain or arm of the molecule)
constant: B1 constant with D191C, T307A
Kd: 0.0265 µM

B20: equine IgG7 A426Y mutant (antibody, part only; not given: variable domains, not shown: another chain or arm of the molecule)
constant: B1 constant with T307Y
Kd: 0.0211 µM

B22: equine IgG7 M428C mutant (antibody, part only; not given: Variable domains, not shown: another chain or arm of the molecule)
constant: B1 constant with T307A, M309C
Kd: 14.6 µM

B26: equine IgG7 M428H mutant (antibody, part only; not given: variable domains, not shown: another chain or arm of the molecule)
constant: B1 constant with T307A, M309H
Kd: 0.165 µM

B30: equine IgG7 M428F mutant (antibody, part only; not given: variable domains, not shown: another chain or arm of the molecule)
constant: B1 constant with T307A, M309F
Kd: 0.0239 µM

B31: equine IgG7 D312N mutant (antibody, part only; not given: Variable domains, not shown: another chain or arm of the molecule)
constant: B1 constant with D191N, T307A
Kd: 0.0253 µM

B32: equine IgG7 D312M mutant (antibody, part only; not given: variable domains, not shown: another chain or arm of the molecule)
constant: B1 constant with D191M, T307A
Kd: 0.0061 µM

B34: equine IgG7 M428D mutant (antibody, part only; not given: variable domains, not shown: another chain or arm of the molecule)
constant: B1 constant with T307A, M309D
Kd: 2 µM

B35: equine IgG7 D312K mutant (antibody, part only; not given: variable domains, not shown: another chain or arm of the molecule)
constant: B1 constant with D191K, T307A
Kd: 0.0164 µM

B36: equine IgG7 D312L mutant (antibody, part only; not given: variable domains, not shown: another chain or arm of the molecule)
constant: B1 constant with D191L, T307A
Kd: 0.0057 µM

B37: equine IgG7 A426W mutant (antibody, part only; not given: variable domains, not shown: another chain or arm of the molecule)
constant: B1 constant with T307W
Kd: 0.0241 µM

B40: equine IgG7 D312A mutant (antibody, part only; not given: Variable domains, not shown: another chain or arm of the molecule)
constant: B1 constant with D191A, T307A
Kd: 0.0176 µM

B41: equine IgG7 M428K mutant (antibody, part only; not given: variable domains, not shown: another chain or arm of the molecule)
constant: B1 constant with T307A, M309K
Kd: 0.0635 µM

B42: equine IgG7 D312G mutant (antibody, part only; not given: Variable domains, not shown: another chain or arm of the molecule)
constant: B1 constant with D191G, T307A
Kd: 0.0384 µM

B43: equine IgG7 M428I mutant (antibody, part only; not given: variable domains, not shown: another chain or arm of the molecule)
constant: B1 constant with T307A, M309I
Kd: 0.24 µM

Other lines, results leading:

Kd: 0.0066 µM
B2: equine IgG7 M428W mutant (antibody, part only; not given: variable domains, not shown: another chain or arm of the molecule)
constant: B1 constant with T307A, M309W

Kd: 0.194 µM
B3: equine IgG7 N434P mutant (antibody, part only; not given: Variable domains, not shown: another chain or arm of the molecule)
constant: B1 constant with T307A, N315P

Kd: 7.4 µM
B5: equine IgG7 N434G mutant (antibody, part only; not given: variable domains, not shown: another chain or arm of the molecule; small tags and cut ends)
constant: B1 constant with T307A, N315G

Kd: 0.0012 µM
B8: equine IgG7 M428R mutant (antibody, part only; not given: variable domains, not shown: another chain or arm of the molecule)
constant: B1 constant with T307A, M309R

Kd: 0.0253 µM
B9: equine IgG7 N434H mutant (antibody, part only; not given: Variable domains, not shown: another chain or arm of the molecule; small tags and cut ends)
constant: B1 constant with T307A, N315H

Kd: 0.0105 µM
B11: equine IgG7 M428L mutant (antibody, part only; not given: Variable domains, not shown: another chain or arm of the molecule)
constant: B1 constant with T307A, M309L

Kd: 6.7 µM
B15: equine IgG7 N434V mutant (antibody, part only; not given: Variable domains, not shown: another chain or arm of the molecule)
constant: B1 constant with T307A, N315V

Kd: 0.0025 µM
B17: equine IgG7 N434C mutant (antibody, part only; not given: variable domains, not shown: another chain or arm of the molecule)
constant: B1 constant with T307A, N315C

Kd: 0.0061 µM
B18: equine IgG7 N434E mutant (antibody, part only; not given: variable domains, not shown: another chain or arm of the molecule)
constant: B1 constant with T307A, N315E

Kd: 0.0058 µM
B19: equine IgG7 M428S mutant (antibody, part only; not given: variable domains, not shown: another chain or arm of the molecule)
constant: B1 constant with T307A, M309S

Kd: 0.0074 µM
B21: equine IgG7 N434F mutant (antibody, part only; not given: Variable domains, not shown: another chain or arm of the molecule; small tags and cut ends)
constant: B1 constant with T307A, N315F

Kd: 0.159 µM
B23: equine IgG7 N434T mutant (antibody, part only; not given: variable domains, not shown: another chain or arm of the molecule)
constant: B1 constant with T307A, N315T

Kd: 0.114 µM
B24: equine IgG7 N434S mutant (antibody, part only; not given: variable domains, not shown: another chain or arm of the molecule)
constant: B1 constant with T307A, N315S

Kd: 0.0013 µM
B25: equine IgG7 N434W mutant (antibody, part only; not given: variable domains, not shown: another chain or arm of the molecule)
constant: B1 constant with T307A, N315W

Kd: 0.273 µM
B27: equine IgG7 N434R mutant (antibody, part only; not given: Variable domains, not shown: another chain or arm of the molecule)
constant: B1 constant with T307A, N315R

Kd: 0.0037 µM
B28: equine IgG7 N434Y mutant (antibody, part only; not given: Variable domains, not shown: another chain or arm of the molecule)
constant: B1 constant with T307A, N315Y

Kd: 0.02 µM
B29: equine IgG7 M428Q mutant (antibody, part only; not given: variable domains, not shown: another chain or arm of the molecule)
constant: B1 constant with T307A, M309Q

Kd: 0.0317 µM
B33: equine IgG7 N434K mutant (antibody, part only; not given: variable domains, not shown: another chain or arm of the molecule; small tags and cut ends)
constant: B1 constant with T307A, N315K

Kd: 0.0011 µM
B38: equine IgG7 N434D mutant (antibody, part only; not given: variable domains, not shown: another chain or arm of the molecule)
constant: B1 constant with T307A, N315D

Kd: 0.0364 µM
B39: equine IgG7 N434A mutant (antibody, part only; not given: variable domains, not shown: another chain or arm of the molecule)
constant: B1 constant with T307A, N315A
